According to article PMC11910139:

Target: ENG-HA (endoglin, HA-tagged, ectopically expressed) (UniProt P17813)
Assay: flow cytometry on cells; cells (HEK293T with or without ENG overexpression, DPSCs with or without ENG knockdown or anti-ENG pretreatment, HUVECs) incubated with His-tagged DSP (0.5 μg/ml) or BSA at 37 °C for 1 h; detected with anti-His-tag mAb-Alexa Fluor 488 and PE anti-human ENG antibody

Sequence of UniProt P17813 (P17813 26-658): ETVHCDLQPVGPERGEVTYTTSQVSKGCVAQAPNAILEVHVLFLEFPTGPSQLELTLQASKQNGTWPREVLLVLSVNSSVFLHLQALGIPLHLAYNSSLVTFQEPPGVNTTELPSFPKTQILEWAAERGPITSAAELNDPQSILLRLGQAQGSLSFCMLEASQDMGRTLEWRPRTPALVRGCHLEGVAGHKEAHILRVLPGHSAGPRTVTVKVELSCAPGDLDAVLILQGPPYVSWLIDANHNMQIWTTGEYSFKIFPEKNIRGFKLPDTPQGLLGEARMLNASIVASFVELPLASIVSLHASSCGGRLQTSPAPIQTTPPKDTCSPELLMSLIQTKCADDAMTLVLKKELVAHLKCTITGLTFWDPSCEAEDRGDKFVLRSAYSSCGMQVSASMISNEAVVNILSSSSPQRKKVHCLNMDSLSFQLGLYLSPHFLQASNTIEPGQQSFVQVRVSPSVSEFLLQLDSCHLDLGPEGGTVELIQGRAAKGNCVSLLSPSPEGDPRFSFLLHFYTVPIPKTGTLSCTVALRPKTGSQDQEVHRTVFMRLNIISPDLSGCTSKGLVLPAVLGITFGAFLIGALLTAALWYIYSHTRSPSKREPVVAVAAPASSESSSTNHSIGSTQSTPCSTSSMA

recombinant DSP-His protein (domain or fragment)
fold increase of the DSP-His signal on HEK293T cells with ectopic ENG against cells without: 7.5 fold
